Results published in patent US20140170171A1.

How the values were obtained:
[1] = biological target: TGF-beta receptors on mink lung epithelial cells (ATCC CCL-64) (mink); assay: cell-based or functional assay
[2] = biological target: rat total IgG (Sigma-Aldrich) (rat); assay: ELISA, rat total IgG on plate, 10 ng TGF-beta in 100 uL 10% glycerol in 0.1M Tris pH 7.4, 18 h 4 C, bound TGF-beta detected with TGF-beta 1 ELISA kit
[3] = biological target: rat total IgG (Sigma-Aldrich) (rat); assay: ELISA, rat total IgG on plate, 10 ng TGF-beta in 100 uL 0.1M Tris pH 7.4 (0 mM NaCl), 18 h 4 C, bound TGF-beta detected with TGF-beta 1 ELISA kit
[4] = biological target: rat total IgG (Sigma-Aldrich) (rat); assay: ELISA, rat total IgG on plate, 10 ng TGF-beta in 100 uL 10% glycerol in PBS, 18 h 4 C, bound TGF-beta detected with TGF-beta 1 ELISA kit
[5] = biological target: rat total IgG (Sigma-Aldrich) (rat); assay: ELISA, rat total IgG on plate, 10 ng TGF-beta in 100 uL PBS, 18 h 4 C, bound TGF-beta detected with TGF-beta 1 ELISA kit
[6] = biological target: Mouse IgG2a (eBioscience) (mouse); assay: Sephadex G-50 gel filtration of the TGF-beta/IgG mixture (1:10 molar), fractions assayed by TGF-beta ELISA
[7] = biological target: Mouse IgG1 (eBioscience) (mouse); assay: as above
[8] = biological target: total mouse IgG (Sigma-Aldrich) (mouse); assay: 20 ng TGF-beta + 1 ug soluble total mouse IgG, 0.5x PBS with NaOH to pH 11, room temperature, 5 min; Sepharose G-50 spin column eluate assayed by TGF-beta ELISA
[9] = biological target: total mouse IgG (Sigma-Aldrich) (mouse); assay: 20 ng TGF-beta + 1 ug soluble total mouse IgG, PBS, 42 C, 5 min; Sepharose G-50 spin column eluate assayed by TGF-beta ELISA
[10] = biological target: total mouse IgG (Sigma-Aldrich) (mouse); assay: 20 ng TGF-beta + 1 ug soluble total mouse IgG, PBS, room temperature, 5 min; Sepharose G-50 spin column eluate assayed by TGF-beta ELISA

Substance | Cell Viability (OD450/Control OD450) at 0.25 pg/mL TIGG (OD450/Control OD450) [1] | Cell Viability (OD450/Control OD450) at 2.5 pg/mL TIGG (OD450/Control OD450) [1] | Cell Viability (OD450/Control OD450) at 25 pg/mL TIGG (OD450/Control OD450) [1] | Cell Viability (OD450/Control OD450) at 250 pg/mL TIGG (OD450/Control OD450) [1] | Cell Viability (OD450/Control OD450) at 2500 pg/mL TIGG (OD450/Control OD450) [1] | other results
Dissociated (Treated) TIGG | 0.621 | 0.645 | 0.651 | 0.651 | 0.616 | –
TGF-beta (Leinco Technologies, St. Louis, Mo.) (ligand) | – | – | – | – | – | Net Absorbance (450) (absorbance (450)) [2]: 0.7; Net Absorbance (450) (absorbance (450)) [3]: 1.02; Net Absorbance (450) (absorbance (450)) [4]: 0; Net Absorbance (450) (absorbance (450)) [5]: 0.18
Transforming growth factor-beta 1 (Peprotech) (from UniProt P01137 279-390) (ligand) | – | – | – | – | – | percent of TGF-beta eluting in the IgG-bound fraction [6]: 40 to 50%; percent of TGF-beta eluting in the IgG-bound fraction [7]: 40 to 50%; Net Absorbance (450) (absorbance (450)) [8]: 0.558; Net Absorbance (450) (absorbance (450)) [9]: 0.117; Net Absorbance (450) (absorbance (450)) [10]: 0.193
purified mouse TIGG (Transforming Growth Factor-beta-bound IgG), intact | 0.965 | 0.924 | 0.897 | 0.817 | 0.678 | –
